Three substances from publication PMC3992947 can be followed below.

For one test, the target named is GST-EnaEVH1 (Drosophila). Kind of test: pull-down; purified proteins; DiaFH1-Cterm and glutathione-Sepharose beads constant, increasing GST-EVH1, 20 min at 25°; supernatants by SDS-PAGE, bound fraction fit to a quadratic equation.
The target of test [1] is Mg-ATP-actin (actin filament barbed ends) (UniProt P68135). Kind of test: TIRF microscopy of single actin filaments; Oregon-green-labeled actin with Drosophila profilin and quantum-dot-clustered biotin-SNAP protein, flow cell at 23°C; barbed end residence time from a single exponential fit.

Consider GST-EnaEVH1 (domain or fragment), for which, in the test with DiaFH1FH2 (Drosophila), the concentration of barbed ends nucleated by 10 nM DiaFH1FH2 (from pyrene assays without profilin), 0 to 5.8 μM GST-EnaEVH1 came to 0.27 nM. The Kd is the equilibrium constant for the complex coming apart. Low values mean a tighter complex, high ones a looser complex. On to “DiaFH1-carboxyl-terminus (Cterm) (domain or fragment)”, for which the Kd with GST-EnaEVH1 (Drosophila) was determined as 13.3 µM.

In test [1], “QD-biotin-SNAP-EnaΔLinker (natural protein)” showed a mean barbed end residence time of 95.2 s.
